According to the MegaScale stability set (Tsuboyama et al. 2023):

B1: HEEH_KT_rd6_0790 (parent)
chain: SEEEEEEWRRAKERGEEIIILGILWKPNDEEAERRIKEALRRV

Variants of: B1
Test: folding stability dG (cDNA display proteolysis); higher = more stable
Conditions: PBS, room temperature

Folding stability dG [kcal/mol], by site and new letter:
D29: F 1.28 | N 1.39 | E 1.06 | T 0.862 | Q 1.34 | R 1.19
G15: E 1.5 | S 1.61 | K 1.6 | H 1.53 | P 1.03 | N 1.9
A39: D 0.764 | W 1.7 | V 1.6 | F 1.69 | L 2.06
K12: E 0.988 | C 2.01 | G 1.07 | S 1.44 | N 1.3 | Y 2.2 | L 1.86 | A 1.59
E7: S 2.31 | F 2.91 | A 2.78 | K 2.9 | D 1.99 | T 2
R35: A 2.21 | K 2.09 | S 1.71 | I 1.66 | H 1.61 | T 1.5 | N 1.62 | E 1.68 | G 1.32
I18: Q 1.3 | M 1.42 | A 1.59 | T 1.84 | D 0.812 | C 2.38
W8: F 2.31 | N 0.676 | I 1.48 | E 0.744 | M 1.34 | R 0.881 | A 0.975 | P 1 | T 0.835
E13: W 1.78 | P 0.785 | S 2.1 | K 1.86 | Y 1.78 | G 1.49 | D 1.93
E16: R 1.66 | N 1.71 | Y 1.9 | G 1.61 | L 2.28 | D 1.95 | W 2.03
W25: C 1.26 | P 0.549 | I 1.01 | Q 0.568 | K 0.664 | S 0.662 | R 0.67 | E 0.532
E2: I 2.44 | H 2.52 | Q 2.29 | N 2.27 | M 2.45
R42: M 1.98 | S 1.92 | K 2.14 | Q 2.09 | W 1.74 | L 2.09 | A 2.11 | H 1.79
L40: S 0.788 | G 0.586 | D 0.532 | N 0.57 | Y 1.1 | W 1.45 | P 0.583 | V 1.25
E5: F 2.13 | W 2.42 | I 1.95 | S 1.73 | K 1.36 | L 2.17 | M 2.1 | Y 2.2 | T 1.79 | Q 1.6
E4: A 2.68 | T 2.29 | W 3.35 | Y 2.93 | P 2.5 | F 2.78 | M 2.82 | R 2.03 | V 2.71 | G 2.04 | I 3.14
K37: Y 2.08 | A 1.92 | M 2.23 | N 2.35
K26: H 1.46 | I 2.02 | L 1.65 | D 1.26 | G 1.52 | V 2.06 | E 1.26 | M 1.7 | S 1.99 | W 1.53
S1: F 2.71 | I 2.61 | D 2.12 | A 2.38 | T 2.36
E31: D 2.14 | G 1.61 | S 1.69 | R 1.38 | T 1.79 | F 1.49
A11: I 2.52 | H 1.6 | W 2.05 | P 1.03 | G 1.22 | D 0.949 | E 1.05 | R 1.62 | S 1.65
G22: K 0.815 | L 2.12 | R 0.712 | P 0.681 | E 1.12 | I 2.28 | F 2.59 | V 2.1
R9: E 1.94 | I 1.94 | W 1.92 | G 1.31 | K 1.96 | M 1.9 | S 1.62 | A 1.91 | C 1.75 | F 1.85
R34: N 2 | I 1.77 | G 1.63 | Q 2.14 | T 1.9 | E 2.12 | K 2.06
E33: F 1.66 | A 1.72 | L 1.7 | G 1.49 | Y 1.71 | V 1.52 | Q 1.31 | M 1.7 | K 1.09 | W 1.99 | N 1.61
I23: V 1.55 | W 0.765 | F 1.26 | T 1.16 | P 0.9 | N 0.85 | D 0.764 | H 1.2
L24: K 2.14 | A 1.53 | I 1.69 | D 0.729 | T 1.75 | N 1.34
E3: Q 2.33 | P 2.29 | R 2.4 | Y 2.44 | W 2.5 | G 2.33 | K 2.46
E6: F 1.93 | C 2.44 | M 1.87 | D 2.09 | H 1.61 | T 1.58 | Y 2.08 | K 1.72 | G 1.46 | P 1.35
A32: P 0.466 | Q 1.07 | R 1.12 | K 0.96 | D 0.955 | S 1.96 | G 1.2 | N 1.02 | M 1.26
V43: K 2.59 | T 1.88 | C 2.36 | W 2.45 | S 2.21 | M 2.48 | F 2.5 | L 2.79 | P 1.84 | A 2.38
R10: I 1.8 | S 1.5 | Y 1.69 | C 2.25 | V 1.72 | M 1.86 | F 1.56 | L 1.82
I19: F 2.08 | Q 1.69 | G 1.01 | H 1.43 | Y 2.2 | N 1.55
L21: I 1.47 | F 1.97 | K 1.66 | P 0.723 | T 1.04 | M 2.35 | D 1.04
E17: D 1.81 | T 2.16 | H 1.89 | R 1.7 | M 2.02 | S 2.18 | K 1.74 | G 1.53
R41: C 2.43 | K 2.06 | Q 1.92 | H 1.88 | W 1.67 | G 1.74 | T 1.81 | F 1.76 | M 1.9
I20: D 0.628 | W 1.17 | H 0.981 | K 0.813 | T 0.843 | P 0.587 | N 0.804
E30: K 1.93 | S 1.83 | P 2.04 | D 2.25 | Y 2.13 | T 1.9 | A 2.03 | R 1.81 | I 2.17
P27: Y 1.22 | G 1.21 | K 1.12 | T 1.16 | V 1.2 | C 2.1 | D 1.35 | L 1.15 | E 1.37 | I 1.27 | Q 1.2
R14: Q 1.83 | H 1.67 | N 1.97 | D 1.49 | V 1.76
I36: D 0.894 | V 2.01 | P 0.142 | W 1.32 | T 1.06 | A 1.11 | Y 1.02
E38: V 1.46 | T 1.41 | I 1.91 | M 1.47 | G 1.46 | W 1.02 | K 1.34 | R 1.52 | D 2.06 | F 1.03
N28: F 2.1 | Q 1.82 | V 1.1 | H 1.97 | R 1.71 | D 2.19 | M 1.77 | G 2.81
